One experiment concerns the target T1, HLA-A2 molecule (Homo sapiens, UniProt P04439, D140Y/D185E/D98H/E176V/E277Q/G131W/G231S/I119V/I121R/I166T/I218V/L300P/L318F/N151K/N90K/P208A/P217A/Q86G/Q94H/R138H/R169H/T345S).
T1 construct: The T2 cell line is deficient for TAP1 and TAP2 transporter proteins and expresses low levels of HLA-A2; endogenous in cells; host or cells: T2 cell line (TAP1/TAP2-deficient)
Put plainly: T2 binding assay (HLA-A2 up-regulation on TAP-deficient T2 cells). The conditions noted are these: for FI0.5: peptide concentration that increases HLA-A2.1 expression by 50% over no peptide. As for the experimental part:
FIG. 1 is a graph showing binding affinity of POTE peptides to HLA-A2 molecules. Peptides were dissolved in DMSO in double-distilled water and different concentrations of peptides were added into the culture of TAP-deficient T2 cells. After overnight culture of the cells in medium supplemented with β2-microglobulin, cells were stained with anti-HLA-A2. HLA-A2 expression was quantified as fluorescence index (FI) according to the following formula: FI=[(mean fluorescence intensity with peptide−mean fluorescence intensity without peptide)/mean fluorescence intensity without peptide]. Background fluorescence without BB7.2 was subtracted for each individual value. To compare the different peptides, FI0.5 (the peptide concentration that increases HLA-A2.1 expression by 50% over no peptide control background) was calculated from the titration curve for each peptide.
FIGS. 2A-2C are graphs showing binding affinity of substituted POTE peptides to HLA-A2 molecules. Shown are binding affinities of the substituted POTE 252 peptides (FIG. 2A), the substituted POTE 553 peptides (FIG. 2B) and the substituted POTE 323 peptides (FIG. 2C) to HLA-A2 molecules. Different concentrations of peptides were added into the culture of TAP-deficient T2 cells. After overnight culture of the cells in medium supplemented with β2-microglobulin, cells were stained with anti-HLA-A2 antibody.
Peptide binding capacity to the HLA-A2 molecule was measured by using the T2 cell line according to a protocol described previously (Peters et al., Bioinformatics 19(14):1765-1772, 2003). T2 cells (3×10^5 cells/well) were incubated overnight in 96-well plates with culture medium (1:1 mixture of RPMI 1640/Eagle-Hank's amino acid containing 2.5% fetal bovine serum, 100 U/ml penicillin, and 100 μg/ml streptomycin) with 10 μg/ml β2-microglobulin (Sigma) and different titrated concentrations of peptides (starting from 100 μM with 2-fold serial dilution) as shown in the figures to determine the concentration giving a 50% increasing in binding. Cells were washed once with cold HBSS containing 0.1% BSA and incubated for 30 minutes at 4° C. with anti-HLA-A2.1 BB7.2 monoclonal antibody (1:40 dilution from hybridoma supernatant). After washing, cells were stained with FITC-labeled goat anti-mouse immunoglobulin (BD, San Jose, Calif.), and the level of HLA expression was measured by flow cytometry. HLA-A2 expression was quantified as fluorescence index (FI) according to the following formula: FI=[(geometric mean fluorescence intensity with peptide-geometric mean fluorescence intensity without peptide)/geometric mean fluorescence intensity without peptide]. Background fluorescence without BB7.2 was subtracted for each individual value. To compare the different peptides, FI0.5, the peptide concentration that increases HLA-A2.1 expression by 50% over no peptide control background, was calculated from the titration curve for each peptide.

A further experiment deals with HLA-A2/POTE252 tetramer. Put plainly: HLA-A2/peptide tetramer stain and TCR Vβ repertoire of CTLs from immunized HHD-2 mice. The conditions noted are these: after 1-week in vitro stimulation with cognate peptide. The format is in vivo. The procedure:
FIGS. 7A-7C are FACS plots showing HLA-A2/peptide tetramer staining and T cell receptor (TCR) repertoire determination for POTE 252- and POTE 252-9V-induced CTLs. HHD-2 mice were immunized subcutaneously with a mixture of peptide and cytokines in adjuvant. Two weeks after the second boost, pooled spleen cells from three mice were restimulated with irradiated splenocytes pulsed with 1.0 μM of peptide for 1 week. (FIG. 7A) Percentage of the HLA-A2/POTE252 tetramer-positive cells in the POTE 252- and POTE 252-9V-induced CTLs. (FIG. 7B) TCR Vβ repertoires of the tetramer^+CD8^+ T cells in POTE 252-induced CTLs. (FIG. 7C) TCR Vβ repertoires of the tetramer^+CD8^+ T cells in POTE 252-9V-induced CTLs.
AAD or HHD-2 mice were immunized subcutaneously (s.c.) in the base of the tail with 100 μl of an emulsion containing 1:1 incomplete Freund's adjuvant (Sigma) and PBS with peptides and cytokines (50 nmol of CTL epitope, 50 nmol of hepatitis B virus core 128-140 helper epitope, 5 μg of mouse interleukin-12, and 5 μg of mouse granulocyte macrophage colony-stimulating factor). Cytokines were purchased from Peprotech (Rocky Hill, N.J.). Mice were boosted 2 weeks later, and the spleens were removed 2 weeks after the boost. For all experiments, groups of three mice were used. […]

As to “KLMAKALLL [POTE 252-260, unmodified 9-mer peptide, residues 252-260 of human POTE]”, in the experiment with HLA-A2 molecule (T2 binding assay), the “binding affinity for the HLA-A2 molecule (in words)” value is reported as “intermediate binders”. Also, the FI0.5 with HLA-A2 molecule (substituted peptides and their wild types, Table 2 / FIGS. 2A-2C) is 1.5 µM; with HLA-A2 molecule (wild-type peptides, Table 1 / FIG. 1), about 1.6 µM. The “tetramer-positive CD8+ T cells” value in the experiment with HLA-A2/POTE252 tetramer is listed as 9.3%.
